In US20140073575:

B1: Mimivirus lysyl hydroxylase L230 (protein)
chain: MISRTYVINLARRPDKKDRILAEFLKLKEKGVELNCVIFEAVDGNNPEHLSRFNFKIPNWTDLNSGKPMTNGEVGCALSHWSVWKDVVDCVENGTLDKDCRILVLEDDVVFLDNFMERYQTYTSEITYNCDLLYLHRKPLNPYTETKISTHIVKPNKSYWACAYVITYQCAKKFMNANYLENLIPSDEFIPIMHGCNVYGFEKLFSNCEKIDCYAVQPSLVKLTSNAFNDSETFHSGSYVPSNKFNFDTDKQFRIVYIGPTKGNSFHRFTEYCKLYLLPYKVIDEKETNDFVSLRSELQSLSEQDLNTTLMLVVSVNHNDFCNTIPCAPTNEFIDKYKQLTTDTNSIVSAVQNGTNKTMFIGWANKISEFINHYHQKLTESNAETDINLANLLLISSISSDFNCVVEDVEGNLFQLINEESDIVFSTTTSRVNNKLGKTPSVLYANSDSSVIVLNKVENYTGYGWNEYYGYHVYPVKFDVLPKIYLSIRIVKNANVTKIAETLDYPKELITVSISRSEHDSFYQADIQKFLLSGADYYFYISGDCIITRPTILKELLELNKDFVGPLMRKGTESWTNYWGDIDPSNGYYKRSFDYFDIIGRDRVGCWNVPYLASVYLIKKSVIEQVPNLFTENSHMWNGSNIDMRLCHNLRKNNVFMYLSNLRPYGHIDDSINLEVLSGVPTEVTLYDLPTRKEEWEKKYLHPEFLSHLQNFKDFDYTEICNDVYSFPLFTPAFCKEVIEVMDKANLWSKGGDSYFDPRIGGVESYPTQDTQLYEVGLDKQWHYVVFNYVAPFVRHLYNNYKTKDINLAFVVKYDMERQSELAPHHDSSTYTLNIALNEYGKEYTAGGCEFIRHKFIWQGQKVGYATIHAGKLLAYHRALPITSGKRYILVSFVN
B2: Mimivirus prolyl hydroxylase L593_long (protein)
chain: MKTVTIITIIVVIIVVILIIMVLSKSCVSHFRNVGSLNSRDVNLKDDFSYANIDDPYNKPFVLNNLINPTKCQEIMQFANGKLFDSQVLSGTDKNIRNSQQMWISKNNPMVKPIFENICRQFNVPFDNAEDLQVVRYLPNQYYNEHHDSCCDSSKQCSEFIERGGQRILTVLIYLNNEFSDGHTYFPNLNQKFKPKTGDALVFYPLANNSNKCHPYSLHAGMPVTSGEKWIANLWFRERKFS
B3: Mimivirus prolyl hydroxylase L593_short (protein)
chain: MVLSKSCVSHFRNVGSLNSRDVNLKDDFSYANIDDPYNKPFVLNNLINPTKCQEIMQFANGKLFDSQVLSGTDKNIRNSQQMWISKNNPMVKPIFENICRQFNVPFDNAEDLQVVRYLPNQYYNEHHDSCCDSSKQCSEFIERGGQRILTVLIYLNNEFSDGHTYFPNLNQKFKPKTGDALVFYPLANNSNKCHPYSLHAGMPVTSGEKWIANLWFRERKFS

What was measured:
[1] = target: T1, His10-tagged human collagen III construct, P02461
T1 chain: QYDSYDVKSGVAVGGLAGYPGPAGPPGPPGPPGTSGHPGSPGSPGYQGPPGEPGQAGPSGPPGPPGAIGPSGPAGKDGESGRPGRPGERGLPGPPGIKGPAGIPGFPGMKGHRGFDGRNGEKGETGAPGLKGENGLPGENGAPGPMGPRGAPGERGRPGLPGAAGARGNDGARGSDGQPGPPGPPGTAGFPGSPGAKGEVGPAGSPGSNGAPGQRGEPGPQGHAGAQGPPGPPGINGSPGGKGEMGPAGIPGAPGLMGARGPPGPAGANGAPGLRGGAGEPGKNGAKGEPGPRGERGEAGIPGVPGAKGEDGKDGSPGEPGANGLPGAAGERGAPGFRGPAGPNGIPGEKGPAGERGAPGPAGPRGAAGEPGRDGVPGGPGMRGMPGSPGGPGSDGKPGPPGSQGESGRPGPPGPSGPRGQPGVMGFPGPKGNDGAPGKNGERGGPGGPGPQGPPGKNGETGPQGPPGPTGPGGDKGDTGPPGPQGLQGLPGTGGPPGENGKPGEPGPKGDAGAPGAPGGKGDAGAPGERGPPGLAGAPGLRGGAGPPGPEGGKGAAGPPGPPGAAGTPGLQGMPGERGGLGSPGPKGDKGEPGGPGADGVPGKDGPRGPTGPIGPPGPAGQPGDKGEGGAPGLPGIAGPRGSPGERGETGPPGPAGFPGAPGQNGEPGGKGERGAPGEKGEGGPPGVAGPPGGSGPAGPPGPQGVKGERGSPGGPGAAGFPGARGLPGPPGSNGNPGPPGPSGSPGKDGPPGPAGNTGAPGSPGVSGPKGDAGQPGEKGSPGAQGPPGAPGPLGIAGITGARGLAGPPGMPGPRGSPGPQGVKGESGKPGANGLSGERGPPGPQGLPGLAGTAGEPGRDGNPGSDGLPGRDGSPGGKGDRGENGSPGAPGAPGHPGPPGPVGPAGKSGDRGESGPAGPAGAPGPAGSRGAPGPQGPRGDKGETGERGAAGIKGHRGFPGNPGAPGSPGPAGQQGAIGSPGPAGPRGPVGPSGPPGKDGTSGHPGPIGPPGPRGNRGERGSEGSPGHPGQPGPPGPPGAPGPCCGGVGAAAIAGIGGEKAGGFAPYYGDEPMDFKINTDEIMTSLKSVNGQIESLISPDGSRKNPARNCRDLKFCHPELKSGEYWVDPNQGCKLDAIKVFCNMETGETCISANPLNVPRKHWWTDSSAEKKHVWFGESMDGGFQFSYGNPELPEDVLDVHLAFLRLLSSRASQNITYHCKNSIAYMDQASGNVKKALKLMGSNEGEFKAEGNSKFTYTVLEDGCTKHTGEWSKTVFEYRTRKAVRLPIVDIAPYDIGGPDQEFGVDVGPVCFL

[2] = target: T2, MimiD peptide GTKGETGLKGII
T2 chain: GTKGETGLKGII

(GDK)4 acceptor peptide = target: T3, (GDK)4 acceptor peptide
T3 chain: GDKGDKGDKGDK

Row | Protein | hydroxylysine in collagen III after co-expression in E. coli (amino acid analysis by HPLC) [1] | lysyl hydroxylase activity [2] | lysyl hydroxylase activity ((GDK)4 acceptor peptide) | prolyl hydroxylase activity ([14C]-CO2 production from [14C]-2-oxoglutarate) ((GPP)7 acceptor peptide) | hydroxyproline in collagen III after co-expression in E. coli (amino acid analysis by HPLC, tandem mass spectrometry of tryptic peptides) [1]
1 | B1 | A peak corresponding to hydroxylysine was detected in collagen III co-expressed with L230 but not in collagen expressed alone in E. coli | The lysyl hydroxylase activity was highest towards the (GDK)4 peptide and the GTKGETGLKGII peptide derived from a Mimivirus collagen sequence | The lysyl hydroxylase activity was highest towards the (GDK)4 peptide and the GTKGETGLKGII peptide derived from a Mimivirus collagen sequence | – | –
2 | B2 | – | – | – | Both short and long forms of L593 are active as prolyl hydroxylases, but the short form has a higher specific activity than the long form | –
3 | B3 | – | – | – | the short form of L593 yielded prolyl hydroxylase activity in the range of 600 pmol/min/mg protein | the amino acid hydroxyproline was clearly detected in the human collagen III extract when the Mimivirus L593 protein was co-expressed
